Assays:
[1] = molecular target: T1, Prostate Stem Cell Antigen (PSCA) (human, UniProt O43653 12-83); test: flow cytometry titration on 293T^PSCA cells, anti-myc-PE detection (Example 7, FIG. 9)
T1 construct: whole, on cells
T1 sequence (looked up): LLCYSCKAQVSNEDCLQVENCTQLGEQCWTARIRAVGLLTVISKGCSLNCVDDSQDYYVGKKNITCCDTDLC
Procedure: After detection with a secondary anti-myc-PE-antibody the MFIs were determined using a MACSQuant Cytometer (Miltenyi Biotech) and FlowJo software and the Kd values were calculated with the PRISM software program. FIG. 9 depicts the graphs for the KD value calculations.

[2] = molecular target: T2, Epidermal Growth Factor Receptor variant III (EGFRvIII) (UniProt P00533 25-1210); test: flow cytometry on 293T^EGFRvIII cells, anti-myc and anti-biotin detection
T2 construct: whole, on cells
Procedure: The bound antibodies were detected either via their myc-epitope using anti-myc/FITC antibody or via their biotin residue using anti-biotin/PE antibody (1:10; Miltenyi Biotec, Bergisch Gladbach, Germany). Cells stained only with secondary antibody were included as a control. […] At least 10,000 stained cells were measured by flow cytometry (MACSQuant, Miltenyi Biotec, Bergisch Gladbach, Germany) and analyzed by FlowJo software version 7.6.5 (TreeStar Inc., Ashland, USA).
In this case the AM1-antibodies served as negative controls. Binding of scFvs and of scFv-P-BAPs was visualized with secondary anti-myc-PE (grey histograms in upper and middle graphs). […] Open histograms represent control staining only using secondary antibodies or an IgG-PE isotype control. […] Recombinant proteins were separated using SDS-PAGE, with parental single chain antibodies serving as controls. Blots were subsequently stripped and re-probed with biotin antibodies.

B1: scFv(h-AM1)-BAP (scFv)
scFv: DAAQPARRARRTKLGTELGSEVQLLESGGGLVQPGGSLRLSCVASGFTFSSYTMSWVRQAPGKGLEWVSYIHNGGGHTYYADSVKGRFTISRDNSKNTLYLQMNSLRAEDTAVYYCTRRMYYGNSHWYFDVWGAGTRVTITSAKTTPPSVYGGGGSGGGGSGGGGSTNSDIQMTQSPSSLSASVGDRVTITCRTSQSISNYLNWYQQKPGKAPKLLIYYTLKLNSGVPSRFSGSGSGTDFTLTISSLQPEDFATYYCQQSKTLPWTFGGGTKLEIKRADAAPTVSGPEQKLISEEDLNSAVDMSGLNDIFEAQKIEWHEGAPSSHHHHHH
modifications: mono-biotinylated at the C-terminal BAP (Bio-Tag)
notes: Fully humanized PSCA-specific scFv with N-terminal Ig kappa leader in the construct and C-terminal c-Myc tag, Bio-Tag and His6; also called humanized scFv(h-AM1)
B1 was tested, and the “fold better affinity (KD value) than the parental murine scFv(AM1)” value [1] was 100 fold.

B2: scFv(MR1.1)-P-BAP (scFv)
scFv: DAAQPARRARRTKLGTELGSHMQVKLQQSGGGLVKPGASLKLSCVTSGFTFRKFGMSWVRQTSDKRLEWVASISTGGYNTYYSDNVKGRFTISRENAKNTLYLQMSSLKSEDTALYYCTRGYSPYSYAMDYWGQGTTVTVSSSGGGSGGGGSGGGGSDIELTQSPASLSVATGEKATIRCMTSTDIDDDMNWYQQKPGEPPKFLISEGNTLRPGVPSRFSSSGTGTDFVFTIENTLSEDVGDYYCLQSWNVPLTFGDGTKLEITKLSSKLKVTVNGTAYDVDVDVDKSHENPMGTILFGGGTGGAPAPAAGGAGAGKAGEGEIPAPLAGTVSKILVKEGDTVKAGQTVLVLEAMKMETEINAPTDGKVEKVLVKERDAVQGGQGLIKIGDLELIEGSSGPEQKLISEEDLNSAVDHHHHHH
modifications: mono-biotinylated at the C-terminal P-BAP (PSTCD biotin acceptor domain)
notes: EGFRvIII-specific scFv fused to P-BAP
B2: binds [2].

B3: scFv(AM1)-P-BAP (scFv)
scFv: DAAQPARRARRTKLGTELGSQVKLQESGGGLVQPGGSLKLSCVASGFTFSSYTMSWVRRTPEKRLEWVAYIHNGGGHTYYPDTIKGRFTISRDNAKNTLFLEMSSLKSEDTAMYYCTRRMYYGNSHWYFDVWGAGTSVTVSSAKTTPPSVYGGGGSGGGGSGGGGSTNSDIVMTQSPSSLSASLGDRVTINCRTSQDISNYLNWYQLTPDGTVKLLIYYTLKLNSGVPSRFSGSGSGTDYSLTINNLEKEDFATYFCQQSKTLPWTFGGGTKLEIKRADAAPTVSGPKLSSKLKVTVNGTAYDVDVDVDKSHENPMGTILFGGGTGGAPAPAAGGAGAGKAGEGEIPAPLAGTVSKILVKEGDTVKAGQTVLVLEAMKMETEINAPTDGKVEKVLVKERDAVQGGQGLIKIGDLELIEGSSGPEQKLISEEDLNSAVDHHHHHH
modifications: mono-biotinylated at the C-terminal P-BAP (PSTCD biotin acceptor domain) when produced in 293T-huBirA cells
notes: PSCA-specific murine scFv derived from 7F5, fused to P-BAP, with myc tag and His6; also called murine scFv(AM1)-BAP
B3: no binding (tested: 1 µg scFv on 2×10^5 cells) [2].

— US20230338553A1 (TECHNISCHE UNIVERSIT T DRESDEN, published 2023)
